Where two headings read alike, the source gives them in different places.
Key:
Assay in all cases: pull-down
[1] = target: SH2 affinity peptide (EPQpYEEIPIYL)
[2] = target: SH2 affinity peptide (EPQpYEEIPIYL); remark: listed apart in the source
[3] = target: SNAP tag–polyproline peptide fusion (…)

Hck (residues 84–531) (enzyme) was tested, and the percent retained relative to Hck–1 [1] was 17% and the percent retained relative to Hck–1 [2] was 2%.
Hck^Y527F (enzyme) gave a percent of kinase retained by the immobilized SH3 domain ligand [3] of 38% and a percent of total kinase retained on beads [3] of 2%.

Source: PMC4136698
